From patent US6045809A, “Pharmaceutical compositions containing a superoxide dismutase” (Institut de Recherches Franctales, priority 1995, dated 2000)

Columns and labels:
[1] = Erythrocyte SOD kinetics in anaesthetized rats after subcutaneous administration; parameters: species or system rat (male OFA, Sprague-Dawley); conditions: rat, in vivo, sc
Procedure: (§1) The kinetics of the plasmatic SOD are analyzed in anaesthetized rats after the oral or subcutaneous administration of free SOD, liposomal SOD or SOD in the form of a composition according to the invention.
(§2) The rats used are male OFA, Sprague-Dawley rats which are devoid of pathogenic germs, weigh 300 to 400 g and are not of the same blood type (IFFA CREDO breed).
Subcutaneous administration:
bovine erythrocyte SOD (Allerbiodose®) 0.5-1-2 mg/ml, in NaCl 0.9%,
bovine erythrocyte SOD 0.5-1-2 mg/ml+plant ceramides 1% (Inocosm), in NaCl 0.9%, according to the invention,
liposomal bovine erythrocyte SOD 0.5-1-2 mg/ml,
(§3) bovine erythrocyte SOD+gliadin, according to the invention.
The solutions or suspensions to be studied are administered at T0 by the injection of a volume of 0.3 ml (in 0.9% NaCl solution) behind the animal's head (n=4).
(§4) Each series of experiments is carried out on 4 animals per dose, the control groups always being treated in parallel for each experiment.
(§5) Once the gavage (or the subcutaneous injection) has been performed on the animals, the latter are anaesthetized by the slow intraperitoneal injection of thiopental (0.1 ml/100 g).
The samples are taken every hour for 6 hours (400 μl) via the one-way tap. The blood is collected in heparinated Eppendorf tubes (20 μl of heparin 1000 IU/ml). It is then centrifuged for 5 min at 4000 rpm. […]

[2] = Erythrocyte SOD kinetics in anaesthetized rats after oral administration (gavage); parameters: species or system rat (male OFA, Sprague-Dawley); conditions: rat, in vivo
Procedure: as §1, §2
bovine erythrocyte SOD (Allerbiodose®) 1-2-4 mg/ml, in NaCl 0.9%,
bovine erythrocyte SOD 1-2-4 mg/ml+plant ceramides 1% (Inocosm), in NaCl 0.9%, according to the invention,
liposomal bovine erythrocyte SOD 1-2-4 mg/ml,
as §3
The gavage is performed on the animals (n=4) at T0 with a volume of 1 ml of solution or suspension to be studied, in 0.9% NaCl solution. This gavage is performed using a cannula mounted on a 1 ml syringe and introduced into the buccal cavity of the rat.
as §4, §5
The samples are taken every hour for 6 hours (400 μl) via the one-way tap. The blood is collected in heparinated Eppendorf tubes (20 μl of heparin 1000 IU/ml). It is then centrifuged for 5 min at 4000 rpm. The plasma is then discarded and replaced with NaCl 0.9%. The tubes are centrifuged again for 5 min at 4000 rpm. The red blood cells are thus washed three times in succession.
The assays of the enzymatic activity of the erythrocyte SOD (of each form) are performed on each control or treated sample.
The erythrocytes are appropriately diluted in distilled water (+0.5 ml of 1% Triton solution) so that the inhibition obtained in the study tube is about 50% of that in the control tube.
The results obtained in IU SOD/ml are reported in IU SOD/mg haemoglobin. The haemoglobin is assayed by spectrophotometry at 405 nm.

[3] = test system: rat paw oedema; test: λ carrageenan-induced paw oedema after oral administration (gavage); format: in vivo; conditions: dose of 0.5 mg/kg
Procedure: To study the comparative kinetics of the anti-inflammatory action of a free form of SOD and a composition according to the invention, at different concentrations.
2 gavages are performed per day (morning and evening).
Injection of 0.1 ml of λ carrageenan 1% in the paw pad.
The measurements are made every hour for 6 hours.

[4] = test system: granulocytes; test: Granulocyte activation (production of superoxide anions after stimulation with zymosan or PMA); format: cell-based
Procedure: The samples are those collected 3 hours after pleurisy.
Reagent control: PBS^+ (0.65 ml)+cytochrome C 5 mg/ml (0.15 ml).
Cell control: PBS^+ (0.65 ml)+cytochrome C 5 mg/ml (0.15 ml)+G 10 M/ml (0.2 ml).
Test: PBS^+ (0.45 ml)+cytochrome C 5 mg/ml (0.15 ml)+ZO or PMA (0.2 ml), with: NaCl control (column 1), SOD (column 2), Ceramide control (column 3), SOD+ceramides (column 4), Liposome control (column 5), Liposomal SOD (column 6).
Incubate for 15 minutes in a water bath at 37° C., with shaking,
stop the reaction for 10 minutes in an ice bath,
centrifuge for 5 minutes at 2000 rpm.

In the case of “SOD: bovine erythrocyte SOD (Allerbiodose®), in NaCl 0.9%”, the “Cmax (comparison in words)” value [1] is reported as “slightly lower”, the “Cmax (comparison in words)” value [2] is reported as “lower” and the “Concentrations/passage of SOD after oral administration (in words)” value [2] is reported as “reaches high concentrations when administered orally”. The Tmax [2] was “around 5 hours”, the “Number of gavages from which the anti-inflammatory effect is observed” value [3] was at least 4 gavages and the “Significance (P) of the anti-inflammatory role” value ([4]; by oral administration) was under 0.05. The “Effect of oral administration on granulocyte activation (in words)” value ([4]; oral administration, FIGS. 18 to 20) was “inhibitory effect”.
